The target of experiment [1] is PP1^Clover (PP1γ catalytic subunit fused to the FRET donor Clover) (human) (UniProt P36873). Put plainly: FRET or BRET; binary complexes SDS22^TAMRA-PP1^Clover (SP) or PP1^Clover-I3^TAMRA (PI) lacking the other subunit, incubated with p97, p37, ATP and NIPP1 as in a3. (In general: Bioluminescence resonance energy transfer reports proximity on the nanometre scale.)
The target is the same in experiment [2]. Put plainly: FRET or BRET; ternary complexes SDS22^TAMRA-PP1^Clover-I3 or SDS22-PP1^Clover-I3^TAMRA (160 nM); FRET while the complex is formed, lost with p97 (160 nM), p37 (480 nM), ATP (2 mM) and unlabeled NIPP1 (240 nM); p97 buffer + 2% BSA + 1 mM DTT, 30 °C.
The target is the same in experiment [3]. The experiment in a line: FRET or BRET; in vitro subunit exchange: SDS22-PP1^Clover-I3 (160 nM) with p97 (160 nM), p37 (480 nM), ATP (2 mM) and NIPP1^TAMRA (240 nM); p97 buffer + 2% BSA + 1 mM DTT, 30 °C; rise of acceptor/donor ratio.
Experiment [4] concerns the target His-PP1γ^Clover (PP1 of the binary SP and NP complexes) (human) (UniProt P36873). The experiment in a line: FRET or BRET; binary complexes SDS22^TAMRA-PP1^Clover (SP) or PP1^Clover-I3^TAMRA (PI) lacking the other subunit, incubated with p97, p37, ATP and NIPP1 as in a3.

Take “I3^TAMRA (His-I3-LPETGGG labeled by sortase with a TAMRA Strep-tag peptide) (from UniProt O60927 1-126) (natural protein)”: the rate constant of p97-p37-mediated dissociation, binary complex without SDS22 (exponential fit of FRET) in experiment [1] came out at 0.0734 min⁻¹. In addition, in experiment [2], the rate constant of p97-p37-mediated dissociation (exponential fit of FRET) came to 0.69 min⁻¹ and the rate constant of p97-p37-mediated dissociation, ternary complex (exponential fit of FRET) is 0.644 min⁻¹.
For “NIPP1^TAMRA (His-NIPP1-LPETGGG labeled by sortase with a TAMRA Strep-tag peptide) (from UniProt Q12972 1-351) (natural protein)”, the rate constant of NIPP1 association after p97-p37-mediated release of PP1 (exponential fit of FRET) in experiment [3] was found to be 0.33 min⁻¹.

B1: SDS22^TAMRA (GGG-SDS22 labeled by sortase with a TAMRA Strep-tag peptide) (natural protein)
chain: MAAERGAGQQQSQEMMEVDRRVESEESGDEEGKKHSSGIVADLSEQSLKDGEERGEEDPEEEHELPVDMETINLDRDAEDVDLNHYRIGKIEGFEVLKKVKTLCLRQNLIKCIENLEELQSLRELDLYDNQIKKIENLEALTELEILDISFNLLRNIEGVDKLTRLKKLFLVNNKISKIENLSNLHQLQMLELGSNRIRAIENIDTLTNLESLFLGKNKITKLQNLDALTNLTVLSMQSNRLTKIEGLQNLVNLRELYLSHNGIEVIEGLENNNKLTMLDIASNRIKKIENISHLTELQEFWMNDNLLESWSDLDELKGARSLETVYLERNPLQKDPQYRRKVMLALPSVRQIDATFVRF
modifications: TAMRA on the ligated peptide (TAMRA)-…
B1 came in with a rate constant of dissociation with p97-p37, binary complex without I3 (exponential fit of FRET) in experiment [4] of 0.0003 min⁻¹. Moreover, in experiment [2], the rate constant of p97-p37-mediated dissociation (exponential fit of FRET) was 0.64 min⁻¹ and the rate constant of p97-p37-mediated dissociation, ternary complex (exponential fit of FRET) is 0.714 min⁻¹.

The values are drawn from PMC11388335.
